Legend:
[1] = target: T1, bovine myelin basic protein (biotinylated MBP, Amersham Biosciences), P02687
T1 chain: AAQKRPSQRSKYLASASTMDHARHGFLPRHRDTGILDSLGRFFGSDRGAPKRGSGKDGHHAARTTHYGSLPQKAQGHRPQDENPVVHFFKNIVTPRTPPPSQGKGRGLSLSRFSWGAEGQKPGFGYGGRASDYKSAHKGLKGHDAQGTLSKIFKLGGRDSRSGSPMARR

[2] = target: T2, peptide 3: Biotin-KKRFSFKKSFKLSGFSFK-COOH
T2 chain: KKRFSFKKSFKLSGFSFK

B1: GST-14171 fusion protein (glutathione S-transferase fused to the N-terminus of a partial 14171 molecule, amino acid residues 1-350 of SEQ ID NO:2) (protein)
chain: MEGDGGTPWALALLRTFDAGEFTGWEKVGSGGFGQVYKVRHVHWKTWLAIKCSPSLHVDDRERMELLEEAKKMEMAKFRYILPVYGICREPVGLVMEYMETGSLEKLLASEPLPWDLRFRIIHETAVGMNFLHCMAPPLLHLDLKPANILLDAHYHVKISDFGLAKCNGLSHSHDLSMDGLFGTIAYLPPERIREKSRLFDTKHDVYSFAIVIWGVLTQKKPFADEKNILHIMVKVVKGHRPELPPVCRARPRACSHLIRLMQRCWQGDPRVRPTFQEITSETEDLCEKPDDEVKETAHDLDVKSPPEPRSEVVPARLKRASAPTFDNDYSLSELLSQLDSGVSQAVEGP
counts per minute at the two hour timepoint, 10 nM enzyme, 0.5 uM substrate [1]: about 21,000 cpm
phosphorylation of biotinylated MBP by soluble GST-14171 fusion protein [1]: phosphorylated MBP
signal-to-noise ratio at the two hour timepoint, 10 nM enzyme [1]: a signal-to-noise ratio of 13
substrate phosphorylation, [gamma-33P]ATP, streptavidin SPA beads [1]: strong phosphorylation of bovine myelin basic protein
counts per minute at the two hour timepoint, 10 nM enzyme, 0.5 uM substrate [2]: about 11,000 cpm
signal-to-noise ratio at the two hour timepoint, 10 nM enzyme [2]: a signal-to-noise ratio of 9
substrate phosphorylation, [gamma-33P]ATP, streptavidin SPA beads [2]: weak phosphorylation of the following peptide, named peptide 3

Source: patent publication US20040048305
